Experimental data: article PMC6326806

Assays:
[1] = biological target: Plk1 (UniProt P53350); assay: GFP-trap co-IP of Myc-Plk1; details: reference: GFP-B-Myb wild type; sites T476
[2] = biological target: Plk1 (UniProt P53350); assay: GST-Plk1 pull-down from cell lysate; details: reference: wild type; sites T476

binding against the reference [1]	binding against the reference [2]	Substance
lost	–	B-Myb (from UniProt P10244) GFP-B-Myb T476A
–	lost	B-Myb (from UniProt P10244) T476A
